Measured values as given in the nanobody polyreactivity screen of Harvey et al. (2022).

Assay: yeast display, Sf9 membrane polyspecificity reagent, FACS + sequencing; frameworks hold sequencing errors
Method in brief: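 Using colony PCR, genes from sorted yeast display clones were amplified, then sequenced on MiSeq at 2 × 250 and filtered by CDR length. The clones had been stained with 10% biotinylated, detergent-solubilized Sf9 membrane reagent for 1 hour at 4 °C and sorted by FACS into low and high (top ~1%) gates on anti-HA and streptavidin fluorescence. Polyreactivity labels come from the gate of origin.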

Row | Sequence | polyreactivity (PSR sort gate)
1 | QDQIVESGGGLVQAGGSLRLSCASYGSTFDRYAMGWYRQAQGKERELVAVITQSGSSTYYADSVKGRFTISRDNAKNTVYLQMKSLKPEDTAVYYCAARYQGSRGQEYYYWGQGTQVTVSS | high polyreactivity
2 | QVQLVESGGGLVQAGGSLRISCAASGITFPYYAMGWYRQAPGKERELVADITSGGSTNYADSVKGRFTISRDNAKNTVYLQMNSLKPEDTAVYYCAADWYVIYDYWGQGTQVTVSS | low polyreactivity
3 | QDQLVESGGGLVQAGGSHRLSCAASGRNFNYNAMGWYRQAPGKERELVAAISGSGGRTYYADSVKGRFTISRDNAKNTVYLQMNSLKPEDTAVYYCAAAGYDSNGRYWGQGTLVTVSS | high polyreactivity
4 | QVQLVESGGGLVQAGGSLRLSCAASGFIFPYYTMGWYGQARGKERELVAAISYSGGSTYYADSVKGRFTISRDKAKNTVYLQMNSLKPEDTAVYYCNADPPLIVYKVWFLLDYWGQGTQVTVTS | high polyreactivity
5 | QVQLVESGGGLVQAGGSLRLSCAASGRIFDVYAMGWYRQAPGKERELVATISSSGGATYYADSVKGRFTISRDNAKNTVYLQMNSLKPEDTAVYYCATTYRPTFRRHYNYWGQGTQVTVSS | low polyreactivity
6 | QVQLVESGGGLVQAGGSLRLSCAASGRTFTFYAMGWYRQAPGKERELVAAISTRGGRTYYADSVKGRFTISRDNAKNTVYFQMNSLKPDDTAVYYCASRARRRYYYWGQGTQVTVSS | high polyreactivity
7 | QVQLVESGGGLVQAGCSLRLSCAASGSIFDTNAKGWYRQAPGKERELVAAIYDNTGRTYYADSVKGRFTISRDNSKNTVYLQMNSQKPEDTAVYYCNAPRYYWISFARWPASYYYWGQGTQVTVSS | high polyreactivity
8 | QVQLVESGGGLVQAGGSLRLSCAASGSTFRGYAMGWYRLAPGKEREFVASISLSGGSTYYADSVKGRFTISRDNAKNTVDSQMNSRKPEDTAVYDGAARARGYGWRGDYWGQGTHVTVSS | low polyreactivity
9 | QVQLLESGGGLVQAGGTLRLSCAASGYTFAWYAMVWSRQAPGKERELVAAINNGGSTSYADSVKGRFTISRDNAKNTVYLQMNSLKREDTAVYYCAARPGAHPDRLDYWGQGTQVTVSS | low polyreactivity
10 | QVQLVESGGGLVQAGGSLRLSCAASGRIFWGYAMGWYRQAPGKERELVAGIRTSGGTTYYADSVKGRFTISRDNAKNTVYLQMNSLKPEDTAVYYCAVVQYTVYNSLYDYWGQGTQVTVSS | low polyreactivity
11 | QVQLVESGGGLVQAGGSLRLSCAASGRIFIENAMGWYRQAPGKERELVAAISGSGGRTYYADSVKGRFTISRDNAKNTVYLQMNSLKPEDTAVYYCAAVLRTQPRRYDYWGQGTQVTVSS | high polyreactivity
12 | QVQLVESGGGLVQAGGSLRLTCAASGIIFDDYAMGWYRQAPGKERELVAAISWIGTTTYYADSVKGRFTISRDNAKKTVYFQMNILKPEDTAVYYCNARPYPSYKYDYWGQGTQVTVSS | high polyreactivity
13 | QVQLVESGGGLVQAGGSLRLSCAASGRIFYINAMGWYRQAPGKERELVAAITGGDGSTTYADSVKGRFTISRDNAKNTVYLQMNSLKPEDTAVYYCNAVTARKYAESQFDHWGQGTQVTVSS | low polyreactivity
14 | QVQLVESGGGLVQAGGSLRLSCAASGSIFYGYAMGWYRPAPGKERELVAAISSGGRTYYADSVKGRFTISRDNAKNTVYLQMNSLKPEDTAVYHCAASYWKPHRESGYDYWGQGTQVTVSS | high polyreactivity
15 | QVQIVESGGGLVQAGGSLRLSCAASVRTFGRYVMGWYRQAPGKERELVAAISSGGRTYYADSVKGRFTISRDNAKNTVYLQMNSLKPEDNAVYYCAVYVAYLYSYYYWGQGTQVTVSS | low polyreactivity
16 | QVQLVESGGGLVQAGGSLRLSCAASGSTFRYYAMGWYRQAPGKERELVAVISTSGNTYYADSVKGRFTISRDNAKNTVYFQMNSLKPEDTAVYYCAARGVGGQISQEYDYWGQGTQVTVSS | low polyreactivity
17 | QVQLVESGGGLDQARGTLSLICAASGSIFRHYAMGWYRQAPWKERELVAAISGSGATTYYADSVKGRFTISRDNAKNTVYLQMKSLKPVDNAVYYCAARTTYITTWVYRHNYTYYYWGQGTQVTVSS | high polyreactivity
18 | QVQLVESGGGLVQAGGSLRLSCAASGRIFTYNAMGWYRQAPGKEWELVAVISRRGGSTYYADSVKGRFTISRDNAKNSVYLQMNSLKPEDTAVYYCAADLPSYAYEFWGQGTQVTVSS | low polyreactivity
19 | QVQLVESGGGFVQAGGSLRLSCAASGLTFYGYAMGWYRQEPGKERELVAAISGSGARTYYADSVKGRFTISRDNAKNTVYFQMNSLKPEDTAVYYCAVRGSWYSEHNYWGQGTQVTVSS | high polyreactivity
20 | QVQLVESGGGLVQAGGSLRLSCAASGRIFHVYAMGWYRQAPGKERELVAAISSGDRTYYADSVNGRFIISRDNAKNTVYLQMNSLKPEDTAVYYCWLYPAAVSNYWGQGTQVTVSS | low polyreactivity
21 | QVQLVESGGGLVQAGGSLRLSCAASGSIFPYYAMGWYRQAPGKERELVAAINWIGGSTYYADSVKGRFTISRDNAKNTVYLQMNSLKPEDTAVYYCAVDYYSYYYEYDYWGQGTQVTVSS | high polyreactivity
22 | QVQLQGSGGGLVQAGGSLRLSCAASGYIFQNVPMGWNRQAPGKERELVAGIDNGTSTNYADSVNGRFTISRDNAKKTVYLQMNSLKPEDTAVYYCAAAGQADNTLGYWGQGTQVTVSS | low polyreactivity

Row | Sequence | polyreactivity (PSR sort gate)
23 | QVQLDESGGGLVQAGGSLRLSCAASGHIFFYYTMGWSRQAPRKEREFVAGITIGGSTNYADSVKGRFTISRDNAKYTVYLQKNSLKPEDTAVYYCNVVTYVYIYSYWEYYYWGQGTQVTVSS | low polyreactivity
24 | QVQLVESGGGLVQAGGSLRLSCAASGIIFWYYAMGWYRPAPGKERELVAAISSGGGTNYADSVKGRFTISRDNAKNTVYLQMNSLKPEDTAVYYCAVASGPELDYWGQGTQVTVSS | low polyreactivity
25 | QVQLVESGGGLVQAGGSLRLSCAASGLTFSRNAMGWYRQAPGKERELVAAINWRGGRTYYADSVKGRFIISRDNAKNTVYLQMNSLKPEDTAVYYCAADPANRCMYYWGQGTQVTVSS | high polyreactivity
26 | QVQLVESGGGLVQAGGSLRLSCAASGRILGFYAMGWYRQAPGKERELVDSINWSGTRTYYADSVKARFTISRDNAKNTVYLQLNSLKPEDTAVYYCAAERYPYGVTYSKLDYWGQGTQVTVSS | high polyreactivity
27 | QVQLVESGGGLVQAGGSLRLSCAASGRTLYLYAMGWYRQAPGKERELVAAIDWRGTSTYYADSVKGRFTISRDNAKNTVYLQMNSLKPEDTAVYYCNAEGRWSSFTQRMDYWGQGTQVTVSS | low polyreactivity
28 | QVQLVESGGGLVQAGGSLRLICAASGSTFGYYTMGWYRQAPGKERELVAAITWSGGSTYYADSVKGRFTISRDYANNTVYLQMNSLKPEDTAVYYCAADDYWTPFGYWGQGTQVTVLS | low polyreactivity
29 | QVQLVESGGGLVQAGGSLRLSCAASGYIFIDYAMGWYRQAPGKERELVAAIRWSDSTYYADSVKGRFTISRDNAKNTVYLEMNSLKPEDTAVYYCAAEDSIRWVRRSRWYYYWGQGTQVTVSS | low polyreactivity
30 | QVQLVESGGGLVQAGGSLRLSCAASGFILDYYAMGWYRQAPGKERELVATITGRGDRTYYADSVKGRFTISRDNAMNTVYLQMNSLKPEDTAVSYCAAGFDGSRHPGFDSWGQGTQVTVSS | low polyreactivity
31 | QVQLVETGGGLVQAGGSLRLSCAASGSISGFIDMGWYRQAPGKERELVAAISYSGGRTYYADSVKGLFTISRDNAKNTVFLQMNSLKPEDTAVYYCAADKFIYSKYTVIRDDYWGQGTQVTVSS | high polyreactivity
32 | QVQLVESGGGLVQAGGTLRLSCAASGRIFSKNAMGWYRQAPGKERELVARIRWTGGITYYADSVKGRFTISRDNAKNTVYLQMNSLKPEDTAVYYCAAGSYAGFAVIGYYYWGQGTQVTVSS | low polyreactivity
33 | QVQLVESGGGLVQAGGSLRLSCAASGRIFSHYAMGWYRQAPGKERELVAAINRSGGSTYYADSVKGRFTISRDNAKNTVYLQMNSLKPEDTAVYYCAATSLRRYGYNYWGQGTQVTVSS | high polyreactivity
34 | QVQLVDSGGGLVQAGGSHRLSCAASGSTFRRNAMGWYRQAPGKERELVAAITRGGSTNYADSVKGRFTISRDNAKNTVYLQMNSLNPEDTAVYYCARVYLGAYRERYVYPYDYWGQGTQVTVSS | high polyreactivity
35 | QVQLVESGGGLVQAGGSLRLSCAASGRTFTRYAMGWYRQAPGKERELVAAITSSGRTYYADSVKGRFTISRDNAKNTVYLQMNSLKPEDTAVYYCAARGVYVKYYYWGQGTQVTVSS | high polyreactivity
36 | QVQLVESGGGLVQAGGSLRLSCAASGSIFGGYAMGWYRQAPGKERELVAAISWSSSSTYYADSVKGRFTISRDNAKNTVYLQMNSLKPEDTAVYYCNAKPFYDYTEYDYWGQGTQVTVSS | low polyreactivity
37 | QVQLVESGGGLVQAGGSLRLSCAASGSTFKSYTMGWYRQAPGKERELVAAISGSGGRTYYADSVKGRFTISRDNAKNTVYLQMNSLKPEDTAVYYCAATGPYGFYWGQGTQVTVSS | high polyreactivity
38 | QVQLVESGGGLVQAGGSLRLSCAASGSTFWKYAMGWYRQAPGKERELVASIRSGGSTYYADSVKGRFTISRDNAKNTVYLQMNSLKPEDTAVYYCAAKSISVGGGVYGYRYYYWGQGTQVTVSS | high polyreactivity
39 | QVQLVESGGGLVQAGGSLRLSCAASGSTFITYAMGWYRQAPGKERELVAAIRFSGDTTYADSVKGRFTISRDNAKNTVNLQLNCLKPEDTAVYYCAVVLYRYDGRKYWRDYWGQGTQVTVSS | high polyreactivity
40 | QVQLVESGGGLVQAGGSLRLSCAASGYIFDIYAMGWYRQAPGKERELVAVITRSGGGTYYADSVKGRFTISRDNAKNSVYLQMNSLKPEDTAVYYCAAESYVYGGSDYDYWGQGTQVTVSS | low polyreactivity
41 | QVQLVESGGGLVHAGGSLRLSCAASGRIFTPYAMGWYRQAPGKERELVAAISGRGGSTYYADSVKGRFTISRDNAKNTVYLQMNSLKPEDTAVYYCAATYFYVYDYWLDYWGQGTQVTVSS | high polyreactivity
42 | QVQLVESGGGLVQEGRSLRLSCAASGSIFTPYAMGWYRQAPGKERELVADINSGGSTDYADSVKGRFTISRDNAKNTVYLQMNSLKPEDTAVYYCASTWSFYFILYDYWGQGTQVTVSS | high polyreactivity
43 | QVQLVESGGGLVQAGGSLRLSCAASGSIFFYYAMGWYRQAPGKERELVAAIDFNGGNTYYADSVKGRFTISRDNAKNTVYLQMNSLKPEDTAVYYCAAEWEGTYTTVPDEFNYWGQGTQVTVSS | high polyreactivity
